± gives the standard deviation.

This data set is described as follows: protein stability index of a GFP-peptide fusion (GPS, HEK-293T) (PSI 1-6); higher = more stable.
The mark [1] stands for this setting: treatment: DMSO, c terminus: a fixed tail appended.
The mark [2] stands for this setting: treatment: MLN4924 1 uM, 8 h, c terminus: a fixed tail appended.
[3] abbreviates: treatment: DMSO, c terminus: native.
Setting [4] is: treatment: MLN4924 1 uM, 8 h, c terminus: native.
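Note: 24-mer peptide tiles fused after GFP, lentivirally expressed, FACS-sorted into six equal bins by GFP/DsRed ratio, decoded by Illumina sequencing, PSI is the read-weighted mean bin number.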

Take PVIPAAALAGYTGSGPIQLWQFLL [ETS1]: the protein stability index was found to be 2.68 ± 0.26 under setting [1] and 2.68 ± 0.28 under setting [2].

On to PVLGRRAVGGRLRLVPGGQRPADV [HAGHL], for which the protein stability index by setting is: under setting [1], 3.64 ± 0.17; under setting [2], 3.88 ± 0.36.

PVMDVWARKQDMNTKRAIHTLAVM [KLHL14]: the protein stability index came to 2.34 ± 0.1 under setting [1] and 2.33 ± 0.17 under setting [2].

As for PVTCCDVSSNNRLVVTGSGEHASV [TLE6], the protein stability index turned out to be 4.19 ± 0.22 under setting [1] and 4.37 ± 0.16 under setting [2].

In the case of QAGDKDLDGQLDFEEFVHYLQDHE [SLC25A25], the protein stability index was determined as 5.19 ± 0.23 under setting [1] and 4.96 ± 0.23 under setting [2].

With QALKRKKRFEKQLTQIDGTLSTIE [CHMP4C], the protein stability index came to 4.05 ± 0.18 under setting [1] and 3.96 ± 0.23 under setting [2].

As for QAQPGEATSGPPGIQPGQEPPVTM [PALM], the protein stability index runs as follows: under setting [1], 5.6 ± 0.19; under setting [2], 5.33 ± 0.24.

Consider QARLRDVSRREGALGWAPAAPPPL [ZBED3], for which the protein stability index runs as follows: under setting [1], 3.44 ± 0.41; under setting [2], 3.6 ± 0.35.

Sequence QCDHCERCFYTRKDVRRHLVVHTG [PLAGL1] registered a protein stability index under setting [1] of 2.91 ± 0.074 and a protein stability index under setting [2] of 3.19 ± 0.27.

Turning to QDELRNRSVKVICLGSLASKLSRK [FAN1], the protein stability index is 2.96 ± 0.32 under setting [1] and 3.17 ± 0.36 under setting [2].

Turning to QDEVPDEVENQFILRLPLEHACTV [TAF7L], the protein stability index is, setting by setting: under setting [1], 4.395 ± 0.043; under setting [2], 4.47 ± 0.13.

As to QDLVELYLTNCEKLSAKSLQTLRS [ZER1], the protein stability index by setting is: under setting [1], 2.1 ± 0.2; under setting [2], 2.54 ± 0.21.

For QDQGYKTLRLRENCVLSSSPNPFP [ZNF8], the protein stability index runs as follows: under setting [1], 3.25 ± 0.11; under setting [2], 3.43 ± 0.22.

Take QDSTRTVGERLQDTHSWKSELQRE [TEKT4]: the protein stability index amounted to 4.88 ± 0.36 under setting [1] and 4.96 ± 0.27 under setting [2].

Take QEFSDVERAIETLIKNFHQYSVEG [S100A14]: the protein stability index runs as follows: under setting [1], 2.33 ± 0.33; under setting [2], 2.59 ± 0.43.

For QEKARQLLGRLKPSHTSRTLILS [MYBL2], the protein stability index runs as follows: under setting [3], 2.12 ± 0.29; under setting [4], 2.32 ± 0.042.

Turning to QEQLLECNKLCGRGQSRQLSPET [SLC2A12], the protein stability index runs as follows: under setting [3], 4.21 ± 0.43; under setting [4], 4.61 ± 0.46.

As for QFHCHKAVLASCSQYFRSLFSSHP [KLHL14], the protein stability index reads like this: under setting [1], 2.95 ± 0.43; under setting [2], 2.81 ± 0.4.

Take QFLDIGPDVTRVGLLQYGSTVKNE [MATN2]: the protein stability index under setting [1] came out at 3.55 ± 0.14 and the protein stability index under setting [2] stood at 3.65 ± 0.45.

As for QFSRGDFVVEYHGDLIEITDAKKR [KMT5A], the protein stability index by setting is: under setting [1], 4.13 ± 0.93; under setting [2], 4.15 ± 0.059.

Consider QGQYETIERLRSLSPKIMQEAFLV [TBC1D10A], for which the protein stability index stood at 2.32 ± 0.21 under setting [1] and 2.22 ± 0.27 under setting [2].

With QGSAVTLKTSKMALSPSATAKRIN [CDC14A], the protein stability index is, setting by setting: under setting [1], 4.22 ± 0.25; under setting [2], 4.44 ± 0.18.

In turn, QGYTINVPWNQVGMRDADYIAAFL [HDAC6] gave a protein stability index under setting [1] of 2.25 ± 0.22 and a protein stability index under setting [2] of 2.46 ± 0.37.

Consider QHGFFRRTADEATNTGPAGSSAST [DYRK1B], for which the protein stability index is, setting by setting: under setting [1], 5.02 ± 0.19; under setting [2], 4.93 ± 0.16.

For the sequence QHGLVLRDLKLCRFVFADRERKKL [TRIB3], the protein stability index runs as follows: under setting [1], 2.38 ± 0.12; under setting [2], 2.55 ± 0.18.

In the case of QHIDNITQIEDATEKLKANAESSK [TRIM14], the protein stability index was 5.46 ± 0.065 under setting [1] and 5.33 ± 0.39 under setting [2].

With QIMQGLEHPFLVNLWYSFQDEEDM [STK32A], the protein stability index worked out at 2.19 ± 0.37 under setting [1] and 2.37 ± 0.36 under setting [2].

As to QKTSGQHMIQGAGSLEKALPIIQS [DLC1], the protein stability index came to 3.86 ± 0.26 under setting [1] and 4.18 ± 0.097 under setting [2].

Take QKYKLFQQQQLTFTAALEHCRENA [SPACA9]: the protein stability index stood at 2.86 ± 0.24 under setting [1] and 3.12 ± 0.29 under setting [2].

With QLDMFYRNWALKESFIKAIGVGLG [AASDHPPT], the protein stability index runs as follows: under setting [1], 2.78 ± 0.1; under setting [2], 2.92 ± 0.58.

Turning to QLKRQKRDYIHSLKLLNVLEEYIT [FAM9B], the protein stability index is 2.28 ± 0.55 under setting [1] and 2.56 ± 0.42 under setting [2].

Regarding QLQKILSIPQSSLEPLKAIIQYRL [ACSBG2], the protein stability index reads like this: under setting [1], 2.78 ± 0.86; under setting [2], 2.36 ± 0.25.

Turning to QLQRSWVKMDQKSKHLKEMYQELM [TRIM43], the protein stability index by setting is: under setting [1], 2.36 ± 0.4; under setting [2], 2.55 ± 0.75.

Take QLSSFGSVDWLSQSSCSGPTHTPR [VENTX]: the protein stability index was determined as 3.48 ± 0.3 under setting [1] and 3.69 ± 0.29 under setting [2].

Take QMPQGNPLLLSHTLQELLARDTVQ [SNX8]: the protein stability index was determined as 3.23 ± 0.086 under setting [1] and 3.15 ± 0.27 under setting [2].

With QMQEDNSSFSLLLDLLSELYQKQP [INTS3], the protein stability index came to 2.38 ± 0.16 under setting [1] and 2.37 ± 0.31 under setting [2].

Turning to QNQNITLDCEGTTNKMKSPETKQR [KMT2E], the protein stability index by setting is: under setting [1], 5.37 ± 0.12; under setting [2], 5.3 ± 0.12.

Regarding QPWHAVMDIESLSVFTEPNRHFYR [FBXO33], the protein stability index is, setting by setting: under setting [1], 2.26 ± 0.18; under setting [2], 2.11 ± 0.13.

With QQAVEQIAKAEETHSSLSQELQAR [CCDC89], the protein stability index stood at 5.2 ± 0.25 under setting [1] and 5.23 ± 0.28 under setting [2].

As to QQHAEGSPEPGTPAAPTPESFTVH [DNAAF3], the protein stability index runs as follows: under setting [1], 5.17 ± 0.24; under setting [2], 5.27 ± 0.43.

QQSPAAVSMETYHVTLTLPPTQLE [C2CD2L]: the protein stability index reads like this: under setting [1], 3.37 ± 0.35; under setting [2], 3.48 ± 0.35.

Sequence QRLEEETRKREDAEHNLVLFRKDV [PRPH] registered a protein stability index under setting [1] of 5.12 ± 0.18 and a protein stability index under setting [2] of 5.13 ± 0.17.

As to QRLKAVIVIQTYYRQWHAKIFVEN [IQUB], the protein stability index reads like this: under setting [1], 2.83 ± 0.5; under setting [2], 2.79 ± 0.79.

QRRASTVSSVTQVEVDENAYRCGS [NET1] returned a protein stability index under setting [1] of 5.01 ± 0.45 and a protein stability index under setting [2] of 5.02 ± 0.2.

Take QRVEQLTRDLAGLRQFFKQLPSPP [CEBPD]: the protein stability index is 2.71 ± 0.34 under setting [1] and 2.82 ± 0.29 under setting [2].

Turning to QSETQGLEGAQAPLAVEEDASSST [MAGEA10], the protein stability index amounted to 5.64 ± 0.26 under setting [1] and 5.52 ± 0.33 under setting [2].

For the sequence QSNVLCSIFGICMVFSGLCPLLLG [PTGFR], the protein stability index runs as follows: under setting [1], 2.75 ± 0.23; under setting [2], 2.63 ± 0.34.

With QSPDEKPLVALDTDSDDDFDMSRY [FAM219A], the protein stability index was determined as 5.44 ± 0.26 under setting [1] and 5.46 ± 0.23 under setting [2].

QVDGGANFSVDRWERKEGGGGISC [CPOX]: the protein stability index stood at 4.4 ± 0.12 under setting [1] and 4.48 ± 0.21 under setting [2].

For the sequence QVLLKGMTSISLPSVMDPGAFETV [ZBTB22], the protein stability index is, setting by setting: under setting [1], 2.61 ± 0.36; under setting [2], 2.84 ± 0.37.

Consider QVLNAIEAYTEHRPEITSRAINLL [ZER1], for which the protein stability index was determined as 2.56 ± 0.27 under setting [1] and 2.66 ± 0.32 under setting [2].

Turning to QVLSAKERHLVEIKQKLGMNLMNE [TPD52L1], the protein stability index worked out at 3.04 ± 0.12 under setting [1] and 3.04 ± 0.13 under setting [2].

In the case of QVVGQVNVEMDATPGIDLTRVLAE [KRT13], the protein stability index under setting [1] turned out to be 4.07 ± 0.32 and the protein stability index under setting [2] amounted to 4.15 ± 0.2.

On to QWWNAVFIMLLIGIVLPVFYLVYF [LYSMD4], for which the protein stability index stood at 2.2 ± 0.16 under setting [1] and 2.14 ± 0.17 under setting [2].

QYEEIALKSKAEAEALYQTKFQEL [KRT71]: the protein stability index by setting is: under setting [1], 4.08 ± 0.35; under setting [2], 4.18 ± 0.15.

Sequence QYNRPISDFLTLHSIIISLVEAGA [FEM1B] displayed a protein stability index under setting [1] of 2.34 ± 0.53 and a protein stability index under setting [2] of 2.36 ± 0.34.

Regarding RAFNTDHQTQLLYQASAMMVESRY [RAD51], the protein stability index is 2.42 ± 0.35 under setting [1] and 2.68 ± 0.22 under setting [2].

Regarding RAGHHPNQYATCRLCGRQVSRGPG [ZBED2], the protein stability index was found to be 2.35 ± 0.38 under setting [1] and 2.67 ± 0.59 under setting [2].

Take RAISTSVCVRAHESVVKSEDFSLP [COX4I1]: the protein stability index runs as follows: under setting [1], 3.9 ± 0.17; under setting [2], 3.79 ± 0.34.

For RDGALLGCSLTADGLPLHFFIQTV [MYORG], the protein stability index stood at 2.35 ± 0.31 under setting [1] and 2.36 ± 0.52 under setting [2].

Regarding RDGGLCVNDLAVGLRRLGLHRTEG [SLC25A25], the protein stability index is, setting by setting: under setting [1], 3.12 ± 0.16; under setting [2], 2.99 ± 0.14.

On to RDGYGMTPLLAASVTGHTNIVEYL [FEM1A], for which the protein stability index by setting is: under setting [1], 2.92 ± 0.22; under setting [2], 2.93 ± 0.24.

For the sequence RDIQDENQLLVADVKRLGKQNARF [STX11], the protein stability index is, setting by setting: under setting [1], 4.21 ± 0.32; under setting [2], 4.44 ± 0.18.

As for RDVAAEAVARSPKRPAWGSRRFEA [POMT2], the protein stability index is, setting by setting: under setting [1], 3.73 ± 0.23; under setting [2], 3.94 ± 0.085.

On to REAMLEMLLQHQICKEVQAEQEPT [SPAG8], for which the protein stability index by setting is: under setting [1], 4.1 ± 0.25; under setting [2], 4.15 ± 0.39.

For RESWDSAKKLPPVQESQSERLQAA [ELOA2], the protein stability index by setting is: under setting [1], 5.12 ± 0.17; under setting [2], 5.02 ± 0.086.

In the case of RFPLMTPQELINYVQTVDFMRTDN [KLHL13], the protein stability index amounted to 2.71 ± 0.26 under setting [1] and 2.83 ± 0.34 under setting [2].

RFYYSEDDHGDECSYTDLLPQDEG [KCNA4]: the protein stability index by setting is: under setting [1], 5.07 ± 0.19; under setting [2], 4.88 ± 0.27.

Take RGFFFSHVGWLLVRKHPAVKEKGS [SCD]: the protein stability index runs as follows: under setting [1], 2.31 ± 0.6; under setting [2], 2.5 ± 0.17.

Consider RGPPHGWPKLCPCLRSGIGSSQAL [MYCL], for which the protein stability index reads like this: under setting [1], 2.21 ± 0.65; under setting [2], 2.26 ± 0.5.

As to RGQVGLVPKNYVVVLSDGPALHPA [NCK2], the protein stability index was 2.56 ± 0.29 under setting [1] and 2.43 ± 0.23 under setting [2].

Take RGRFGELLLLLPTLQSITWQMIEQ [HNF4A]: the protein stability index by setting is: under setting [1], 2.94 ± 0.28; under setting [2], 3.33 ± 0.3.

The values above are taken from the supplement of paper PMC10567573.
